# Assay results as given in patent US20240277805A1.
# B1: STM 434 (svActRIIB-Fc (E28W, S44T) polypeptide without signal sequence) (Fc fusion)
# chain: ETRWCIYYNANWELERTNQTGLERCEGEQDKRLHCYASWRNSSGTIELVKKGCWLDDFNCYDRQECVATEENPQVYFCCCEGNFCNERFTHLPEAGGPEVTYEPPPTAPTGGGGSVECPPCPAPPVAGPSVFLFPPKPKDTLMISRTPEVTCVVVDVSHEDPEVQFNWYVDGVEVHNAKTKPREEQFNSTFRVVSVLTVVHQDWLNGKEYKCKVSNKGLPAPIEKTISKTKGQPREPQVYTLPPSREEMTKNQVSLTCLVKGFYPSDIAVEWESNGQPENNYKTTPPMLDSDGSFFLYSKLTVDKSRWQQGNVFSCSVMHEALHNHYTQKSLSLSPGK
# Molecular target: T1, myostatin (UniProt O14793)
# T1 sequence (looked up): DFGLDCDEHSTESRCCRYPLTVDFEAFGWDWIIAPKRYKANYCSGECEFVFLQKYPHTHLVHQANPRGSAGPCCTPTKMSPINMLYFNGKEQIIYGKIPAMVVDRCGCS
# Test: cell-based or functional assay
binder,measurement,value
B1,"Bioassay % relative potency; lot 0010036965, 5° C. upright, 0 months (% relative potency)",100
same,"Bioassay % relative potency; lot 0010036965, 5° C. upright, 0.5 months (% relative potency)",99
same,"Bioassay % relative potency; lot 0010036965, 5° C. upright, 1 month (% relative potency)",100
same,"Bioassay % relative potency; lot 0010036965, 5° C. upright, 3 months (% relative potency)",104
same,"Bioassay % relative potency; lot 0010036965, 5° C. upright, 6 months (% relative potency)",94
same,"Bioassay % relative potency; lot 0010036965, 25° C. upright, 0 months (% relative potency)",100
same,"Bioassay % relative potency; lot 0010036965, 25° C. upright, 0.25 months (% relative potency)",97
same,"Bioassay % relative potency; lot 0010036965, -20° C. upright, 0 months (% relative potency)",100
same,"Bioassay % relative potency; lot 0010036965, -20° C. upright, 1 month (% relative potency)",100
same,"Bioassay % relative potency; lot 0010036965, -20° C. upright, 3 months (% relative potency)",102
same,"Bioassay % relative potency; lot 0010036965, -20° C. upright, 6 months (% relative potency)",95
same,"Bioassay % relative potency; lot 0010036965, -20° C. upright, 9 months (% relative potency)",103
same,"Bioassay % relative potency; lot 0010036965, -20° C. upright, 12 months (% relative potency)",102
same,"Bioassay % relative potency; lot 0010036965, -20° C. upright, 18 months (% relative potency)",102
same,"Bioassay % relative potency; lot 0010036965, -20° C. upright, 24 months (% relative potency)",99
same,"Bioassay % relative potency; lot 0010036965, -20° C. upright, 30 months (% relative potency)",102
same,"Bioassay % relative potency; lot 0010036965, -70° C. upright, 0 months (% relative potency)",100
same,"Bioassay % relative potency; lot 0010036965, -70° C. upright, 12 months (% relative potency)",100
same,"Bioassay % relative potency; lot 0010036965, -70° C. upright, 24 months (% relative potency)",100
same,"Bioassay % relative potency; lot 0010036965, T = 0 of the 5 × freeze/thaw study (% relative potency)",100
same,"Bioassay % relative potency; lot 0010036965, after 5 × F/T (% relative potency)",100
same,"Bioassay % relative potency; lot EG-13-0150, 2-8° C. upright, 0 months (% relative potency)",99
same,"Bioassay % relative potency; lot EG-13-0150, 2-8° C. upright, 1 month (% relative potency)",93.2
same,"Bioassay % relative potency; lot EG-13-0150, 2-8° C. upright, 3 months (% relative potency)",99.7
same,"Bioassay % relative potency; lot EG-13-0150, 2-8° C. upright, 6 months (% relative potency)",114
same,"Bioassay % relative potency; lot EG-13-0150, 2-8° C. upright, 9 months (% relative potency)",103
same,"Bioassay % relative potency; lot EG-13-0150, 2-8° C. upright, 12 months (% relative potency)",106
same,"Bioassay % relative potency; lot EG-13-0150, 25° C. upright, 0 months (% relative potency)",99
same,"Bioassay % relative potency; lot EG-13-0150, 25° C. upright, 1 month (% relative potency)",86.9
same,"Bioassay % relative potency; lot EG-13-0150, -20° C. upright, 0 months (% relative potency)",99
same,"Bioassay % relative potency; lot EG-13-0150, -20° C. upright, 1 month (% relative potency)",93.2
same,"Bioassay % relative potency; lot EG-13-0150, -20° C. upright, 3 months (% relative potency)",94.4
same,"Bioassay % relative potency; lot EG-13-0150, -20° C. upright, 6 months (% relative potency)",110
same,"Bioassay % relative potency; lot EG-13-0150, -20° C. upright, 9 months (% relative potency)",99.3
same,"Bioassay % relative potency; lot EG-13-0150, -20° C. upright, 12 months (% relative potency)",105
same,"Bioassay % relative potency; lot EG-13-0150, T = 0 of the 5 × freeze/thaw study (% relative potency)",99
same,"Bioassay % relative potency; lot EG-13-0150, after 5 × F/T (% relative potency)",96
same,"Bioassay % relative potency; lot FG-13-0230, 2-8° C. upright, 0 months (% relative potency)",99
same,"Bioassay % relative potency; lot FG-13-0230, 2-8° C. upright, 1 month (% relative potency)",116
same,"Bioassay % relative potency; lot FG-13-0230, 2-8° C. upright, 3 months (% relative potency)",108
same,"Bioassay % relative potency; lot FG-13-0230, 2-8° C. upright, 6 months (% relative potency)",93
same,"Bioassay % relative potency; lot FG-13-0230, 2-8° C. upright, 9 months (% relative potency)",116
same,"Bioassay % relative potency; lot FG-13-0230, 2-8° C. upright, 12 months (% relative potency)",121
same,"Bioassay % relative potency; lot FG-13-0230, 25° C. upright, 0 months (% relative potency)",99
same,"Bioassay % relative potency; lot FG-13-0230, 25° C. upright, 1 month (% relative potency)",116
same,"Bioassay % relative potency; lot FG-13-0230, -20° C. upright, 0 months (% relative potency)",99
same,"Bioassay % relative potency; lot FG-13-0230, -20° C. upright, 1 month (% relative potency)",100
same,"Bioassay % relative potency; lot FG-13-0230, -20° C. upright, 3 months (% relative potency)",115
same,"Bioassay % relative potency; lot FG-13-0230, -20° C. upright, 6 months (% relative potency)",96
same,"Bioassay % relative potency; lot FG-13-0230, -20° C. upright, 9 months (% relative potency)",94
same,"Bioassay % relative potency; lot FG-13-0230, -20° C. upright, 12 months (% relative potency)",106
same,"Bioassay % relative potency; lot FG-13-0230, -70° C. upright, 0 months (% relative potency)",99
same,"Bioassay % relative potency; lot FG-13-0230, -70° C. upright, 1 month (% relative potency)",115
same,"Bioassay % relative potency; lot FG-13-0230, -70° C. upright, 3 months (% relative potency)",107
same,"Bioassay % relative potency; lot FG-14-0056, 2-8° C. upright, 0 months (% relative potency)",99
same,"Bioassay % relative potency; lot FG-14-0056, 2-8° C. upright, 1 month (% relative potency)",102
same,"Bioassay % relative potency; lot FG-14-0056, 25° C. upright, 0 months (% relative potency)",99
same,"Bioassay % relative potency; lot FG-14-0056, 25° C. upright, 1 month (% relative potency)",122
same,"Bioassay % relative potency; lot FG-14-0056, -20° C. by the title (condition line prints 2-8° C.), 0 months (% relative potency)",99
same,"Bioassay % relative potency; lot FG-14-0056, -20° C. by the title (condition line prints 2-8° C.), 1 month (% relative potency)",117
same,"Bioassay % relative potency; lot FG-14-0109, 2-8° C. inverted, 0 months (% relative potency)",98
same,"Bioassay % relative potency; lot FG-14-0109, 2-8° C. inverted, 3 months (% relative potency)",96
same,"Bioassay % relative potency; lot FG-14-0109, 2-8° C. inverted, 6 months (% relative potency)",112
same,"Bioassay % relative potency; lot FG-14-0109, 2-8° C. upright, 0 months (% relative potency)",98
same,"Bioassay % relative potency; lot FG-14-0109, 2-8° C. upright, 3 months (% relative potency)",92
same,"Bioassay % relative potency; lot FG-14-0109, 2-8° C. upright, 6 months (% relative potency)",107
same,"Bioassay % relative potency; lot FG-14-0109, 25° C. inverted, 0 months (% relative potency)",98
same,"Bioassay % relative potency; lot FG-14-0109, 25° C. inverted, 3 months (% relative potency)",94
same,"Bioassay % relative potency; lot FG-14-0109, 25° C. inverted, 6 months (% relative potency)",98
same,"Bioassay % relative potency; lot FG-14-0109, 25° C. upright, 0 months (% relative potency)",98
same,"Bioassay % relative potency; lot FG-14-0109, 25° C. upright, 3 months (% relative potency)",91
same,"Bioassay % relative potency; lot FG-14-0109, 25° C. upright, 6 months (% relative potency)",105
same,"Bioassay % relative potency; lot FG-14-0109, -20° C. upright, 0 months (% relative potency)",98
same,"Bioassay % relative potency; lot FG-14-0109, -20° C. upright, 3 months (% relative potency)",96
same,"Bioassay % relative potency; lot FG-14-0109, -20° C. upright, 6 months (% relative potency)",101
same,"Cell Based Bioassay, Relative Potency; DP lot 0010036965, 5° C., 54 months (% relative potency)",87
same,"Cell Based Bioassay, Relative Potency; DP lot 0010036965, -20° C., 54 months (% relative potency)",99
same,"Cell Based Bioassay, Relative Potency; DP lot 0010036965, -70° C., 54 months (% relative potency)",111
same,"Cell Based Bioassay, Relative Potency; DS lot 0010035106, 5° C., 54 months (% relative potency)",101
same,"Cell Based Bioassay, Relative Potency; DS lot 0010035106, -70° C., 54 months (% relative potency)",99
